Measured values: the domain aggregation screens of Martell et al. (2025)

Assay: soluble fraction after stress (log2 fold change); higher = more stays soluble; pooled small domains, quantitative proteomics
Conditions: stress: 50 degC
How it was run: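 After stress at 50°C, the amount of each protein still soluble was measured. This was done on pooled custom libraries of small protein domains, using high-throughput quantitative proteomics. The figure given is a base-two log fold change and stands for aggregation propensity, with higher values meaning more protein stays in solution.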

Sequence	soluble fraction (log2)
HMEKGWYKLGQDSYYVDDDGKIHKGWLELDGKKYYFDQEGKMVTGTVNIDGKDYTFNEKGELYVS	0.183
HMRRSSQQLTLTEVSTIKEMVTSEEYRHVPTGTLALLAQRLRKVFASSSTWYRLVRIYKWRRPRGRIH	0.549
HMREPIPVPSRPIRAGDLVEIPGTNRPAEVTAVKGDRLVLKAGVLSMTVKNDEVRLIEDDERAAM	0.0715
HMAMDSGELEAIVDRLISEHPDDWAALTAGDDRERKKKSGFFVGEVMKATRGQADGRAVIELLASRSA	0.00605
HMDPERLDQLQNPDPAVRREAIIALGRSKDLAALPELAKVYKNDPVPELRELARQAGRYIQQENRP	0.126
HMAVTNLTAKQISDTRWRVTWDSTLASPTYYVYRDGLLMMQTRQELYEFDAARGEQVQIDVLDDMAAAPAE	-0.741
HMAVDAASSTIGKNVEVSVANEKGDYENFNGKVKSASIKDGVVYLELELKDTGEIKEVPYSSLTKIT	0.0595
HMPKLVGEVMQTLDALRREKGLSLLLVEQNARAALGVVDRVYVLERGRVVFEGSAKEAMEDQDVMEFYLG	0.0385
HMDDERDRLVQQAMEGLSPALREILLLAYFQRMPYNQIAESLRIPLGTVKSRLHAAVAAFAKRWQELNRS	-0.693
HMSTTYLNEGDRITLTDSVNIRTSMSETADRVGLAYQGDVVTVIMSYAEGWTKVSWNGQTGYAKTEYL	-0.617
HMNPDTERIREFVAVSLKNRKVATSGEIQNMIVKQFKNFKLKSHGYSNMKSFLSSIDKIQLNSNGKYSLK	-0.355
HMGEQETILKGDVNRDGVVDVNDVTHLQIHISNDDKNPLIDVTNKAWFDAADMYGDGKLDILDATALQIYI	0.11
HMQISGSEELEKIVQTVLEKNTDVVEEYKSGKTKVFAFLMGQVMKESRGKANPRLAKDILEKFLA	-0.0362
HMGNVGEAIEALVKGFQEGNQFQTLLGVTGSGKTFTMANVIAALNKPTLIISHNKTLAAQLYLSLIHIS	0.112
HMLKEGQYSPNHFHWHKMEDIINRGGGTLLIRVYNSLPDEEIDRESDVTVHMDGVTRTVPAGTQLRLE	-0.229
HMSISEFNYTEFNGLVEKGQVSEVTISGREIEGRLTSGESFKTYSPETDNSALVGDLLKNNVKINGKP	0.12
HMRLADHVVEKLLALVQERGLQPGQKLPAERQLAEVLGVSRTSVREAIQKLVSQGVLSARRGDGTYVQS	0.00808
HMNQNAMIGAHIRNLRLAKKLTLKQLSDESGLSVGFLSQLERGMSSIAIDTLARLAHILGADLSSFF	-0.763
HMDVLFGNRLRQLLDERNISQAHFADRIGVSRSRMNNYVAQRSEPDYATLIRIANTLDTSIDFLLGKS	-1.93
HMSTTSYTQFMEDAKAGKIARVDIKGREITVTPTEGSRYVITSPGDLWMVDDLRKDGVQVYGPP	0.101
HMELLTYREMDVLNLLDQRLTNKEIAHALGISTETVRQHTVNLFRKLNVDNRRQAIVVARSLGYIGTPT	-1.2
HMTTPDIIVPDVKGMTVAEAQKALEEKGFKVKLEEMTQEGAVPGDVIRIDPVAGTKRKEGAKITLLIARG	0.161
HMREISSDELHSLFSADQRGDLVINETTRLSIEKLYALHTPEEREAKVNELSGVLPSEAHRQLVHFLDYFD	-1.26
HMARDPWDVLGVAKTATNDEIKRAFKRQAMMTHPDKQGGSEERFKEVNEAYSHIKDEQSRAKYQNSQ	0.238
HMDNWAALLSEREVQVSRLVANGASNKEIADHLAITERTVKAHLTAVFEKLGVRDRLQLSLRVNGL	-2.01
HMTGGLTQEQISQLRMLTPQQIEQLRQLQPQQVEMLRQLRPEQVMLLTQLEPQQIMAFMRLEPSVIMQL	-0.215

Sequence	soluble fraction (log2)
HMPPLVLRGVVMGADGARLAILAQGEAGAALGIGETWKEYTLRSVTDQSATLEHRSGTITLTR	-0.117
HMSDAPLLSIRSLAVAFDGTRVVDGVSFDVARGEVVALVGESGSGKTVTGLSLLDLVPPPGRRVGGEV	0.0423
HMGGTTLIAKQATVTGDIQFSSNLDIEGRVVGAISVEPGKEAMLHVVEGGSVEGEIRVPSAVINGKVTGDI	0.101
HMSDESRAEIVSSAKRLFQQYGYKKTTVSDIAKAMGKVKSAIYYYFPDKESLLRAVIDEEVG	-0.0483
HMSNDRSYLARLQDYYAEHRALPSYASIGALLGLRSKSSVAALVARLKLAGFVESTPDRRLAPTRRFF	-3.24
HMISINVIGEMISGSYGNTPFSRTYEKDIYEQMVKLSDDADQAQTVEEYNKILAEFSLLTTEDLK	-0.698
HMLPDLQKAIDTFLYEVDSRINTSFEELIDKLNSKEEAVAFFLALLEAVRWGFIKAEQESNSINIKK	-0.565
HMSRAMFEMHADWQPTDSIRGLLGRAGLPTDIAKLDQSRIGDFVNHWFGKPDRNTADSWNGLLVGWLKRTQ	-1.18
HMRASVTYVVQVNGKLRGKLEVAPDIDPEELKKLALEVENVKHSLQGWTVKKVIVIPGKMVSIAAGK	0.0764
HMAKMPSIIIMKDGVIRTSELEQIERDENWLNEEMKKQHIDNPEDVFLAEFWDGKVNFILQDGKIK	0.0716
HMVGDLPPQELRVFELIGDGLSNREIADEMILAEKTIKNYVTSLLQKLGMQRRTEAAAFAARLDER	-0.0396
HMNILNFSENIIKLRHKKGITQEELADFVGVTKASVSKWETKQSLPDIMLLPRLAAYFDVTVDELLGYEP	0.0236
HMLTGADAEKATAAAQAEFPGGTVLRVETDADGTYEAHVRKADGTEVEVKMDKDFKVTSVEE	0.0905
HMSVKLMEVKGASTVVSRQVREAVSIVFPTSSMRLDLVALKARIEGVDAVKRADVYLRNGILEIQIDER	-1.99
HMKLNETIAEARKRKGLTQEQLAQKLYVTRQAVSRWERGEVVPGIDMLKLIAITLEEPIVHLL	-0.769
HMGAYITYEVKPGDTLWDIANKFPGVSADNIKTWNKVDELIKAGERLKINTQTITDYSPDKYPS	-0.221
HMDVAWDAIKAKLKEVVDAEDKAHPLNDDQIVKALGESGITIARRTIAKYRDLLGIPPARKRKA	0.0649
HMNTEEKILEKEFLMLYSELGLQPKNIYELMENTGLKYEKLVEMLLQLQLKGLVEQPSYNYYSRL	-1.02
HMAVGVFQKEDGYWGYRFSIIVDGKTIARRKFTDENGSKLRTKSEAVKARAAAMVAARMERVS	-2.96
HMKSIRIPFILTEGPNSQKITIDIDSDEEFRIGDVFDEDDKLWSINQILISGDRKAKMAIASEVTSISALR	-2.39
HMNVWGLSERELEATRLLIEGFSSKEASARMGISPSTVRSLWGRARAKMGVDSIEDARELVA	-0.236
HMVYLPGEEIPLKIIQEGKESGQGVGYLEDGTMVVVENGRRYLNQEVLVQVTKILQTNAGRLIFAVP	-0.346
HMAQISDESALYDLVKSVLDANPQSIADYKAGRDRALGFLMGQAMKLSKGKANPPVINKILKEMLDK	0.0791
HMIIVMKRNATETQIDHVVRWVESIGYRAHRSNGTEQTVVKAVGGERGGEELKYLAALSGVEKVVPIR	-0.0291
HMLPKAERREQLMAVARSVFAEQGYHTTSMEIIAETAGVSKPLLYQHFPSKLDLYLALLDAGID	-1.56
HMVGDMLTQKDSEGLTAYLYQQGIISQREMLLLNGILKDRVLTGMEKGQRDSVRASMVQHLLAMLNMM	-0.848

Sequence	soluble fraction (log2)
HMLNDMYAVMEIRGQGGELIAKLINQDGSPFYVKKGTTLQSGHVIDEITTTYVRAEKAGAKDYLYF	-0.0846
HMFEYDEIMEQSVPKIAWGSLLTIMKKASSHKEMLWYINETYKNGWSRSMVLNQIAMASYERSLIE	-0.851
HMESSKLQASIINYLERRPTQKFTAEELFKGLSLEKASVFNELVKELTSLERSHKVEITADDKFKIARPQ	-0.126
HMGTQIKSPMPGTILDVRVNVGDTVKEGDILMILEAMKMENEILAPVSGKVAAIQVSKGTAVNSGDLLAVL	0.224
HMQADKYKSYTATDFLKDKDFLRWQLFNGEEDMLFWGRVIEEYPALRSRVEEGIVLYKDNIR	-0.981
HMLKIAENIYQRRKEKNITQEELADFMMVTKASVSKWETGQSYPDILLLPKLATFFNVTVDELIGYEPQ	-1.2
HMTSMTHLGRHPDSEISLDDISVSRRHAEIERQGHEYVLRDSGSLNGTYVNQQRVDSVVLQQGDEIL	0.234
HMTSPQGIERFLASGVIEGVGKAMAARIVAVFGGQTLEIIEKQPHRLREVRGIGVKTAEKIHASYQEKA	-0.81
HMQETMTNDEVISLTKAGLSSSIIIGKIRSSATNFDLSTDSLIKLKQAGVSDETVAAMLEAKS	0.0855
HMPTPASGSSGYINATNVNFRTGPATSYKSISKLAKNTAVTILGTSGNWYKVTVGSLGKNGYVFATYVTVS	-0.556
HMKININEASRYELMTIGGLDAGRADMLMQYRQKREISSADELKGINGFASYDTAKLQKSFEISP	-0.0475
HMDDVGERIRKIREEKNLSLDEISKMTGFDVEFLAKIENKERQPQLGTVIKLSKALDSAFGRL	0.221
HMEDPKLAQLTEQERKILDLIADGLTNRQIAEKMFLAEKTVKNYVSTILAKMGMSNRSEAAAYVARLEAG	0.0787
HMKDKSEKTKKLIFEAAFKIIREEGFSELSANKIAQVASVSKGVIFHHFSQMDDLYLFMLDTL	0.255
HMNNMVNTLLKLLAEQDVLRGIVRRFTPSSVFVFLQNEEVEVELPLQGRSLAPGQLVELTQEGASVALKRL	-0.647
HMRLYTQDVAVLNRDVIQGEVITSDMVTTVNVHKRTVPTGALNLSEIPGNVAKFNIPASIPITASMVTK	0.0171
HMQEPIAVPDFINKSAVDVLVNPVFTQNFKLVSEDVYDDKVPEGYIVGQSVKSDTLVQPGTEIVIYV	0.175
HMIQLKEHDVVRLRETIVENDEKIPAGTRGVVLSVYDGGRAFAVEVADDRAASAIITAFRDQLEVY	-0.136
HMRGLIEPLSQRELEVLMLMARGQSNAHIADQLNISENTIKWHGRNIFGKLGVSNRTEAVITSQEMGMLAT	-0.621
HMQKTQVVEVAGKSYQLTKMDARTGSYVAFKVAGVLAPSGGKTAEMAAALMGMPRKDFDELQSLLLRTV	0.141
HMSLAISGRNQLHGIIEEVRSDGLLSQIYLRVGDQVLTAVITRDAVAELKLKRGDTAVAIMKSTEVMIARE	0.147
HMQRQGTVATQQTPLNIRSQPSLSAQVIGQAPKGATVAILGESGDWYQIRYQNITGYSSKQYI	0.145
HMGTTLTKIPGIGENRARLLLRHFGSLRAVREADADALAAVKGMTRPAAEAIVRYFEQQDAEGRRD	0.21
HMSINIDEEKKILGPNADQIIKGITTWGQGLVSKGIWSDADFEEFKIFAATGNGINALNKVRKYY	-0.255
